Test [1] addresses EGFR overexpressed on cancer cell lines MDA-MB-468 and A431 (human) (UniProt P00533). The test can be described thus: flow cytometry, antibodies added at 2 µg/ml, MDA-MB-468 cells.
The target is the same in test [2]. The test can be described thus: flow cytometry, antibodies added at 2 µg/ml, A431 cells. For orientation: A flow cytometer gives signals particle by particle.
Test [3] concerns the target wtEGFR at physiological levels on WI-38 cells (human) (UniProt P00533). As to the kind of experiment: flow cytometry, antibodies added at 2 µg/ml, WI-38 cells.
Test [4] concerns the target wild-type EGFR on F98EGFR cells (rat glioma F98 transfected with full-length EGFR) (UniProt P00533). As to the kind of experiment: flow cytometry, antibodies added at 2 µg/ml, F98-EGFR cells.
For test [5], the target named is EGFRvIII on F98npEGFRvIII cells (rat glioma F98 transfected with nonphosphorylated EGFRvIII). The test can be described thus: flow cytometry, antibodies added at 2 µg/ml, F98-npEGFRvIII cells.
Test [6] concerns the target wtEGFR at physiological levels on WI-38 cells (human) (UniProt P00533). The test can be described thus: flow cytometry on WI-38 cells, antibody at 2 µg/ml.
Test [7] has as its target wild-type EGFR on F98EGFR cells (rat glioma F98 transfected with full-length EGFR) (UniProt P00533). As to the kind of experiment: flow cytometry on F98EGFR cells, antibody at 2 µg/ml.
Test [8] deals with EGFR and EGFRvIII on GBM39 cells (patient derived xenograft glioblastoma line). The test can be described thus: flow cytometry on GBM39 cells, antibody at 20 µg/ml.
In test [9] the target is EGFRvIII on DKMG-EGFRvIII cells (human glioblastoma line DKMG transduced with EGFRvIII). As to the kind of experiment: flow cytometry on DKMG-EGFRvIII cells, antibody at 0.1 µg/ml.
For test [10], the target named is EGFR and EGFRvIII on GBM39 cells (patient derived xenograft glioblastoma line). As to the kind of experiment: flow cytometry on GBM39 cells, antibody at 0.2 µg/ml.
In test [11] the target is EGFRvIII on DKMG-EGFRvIII cells (human glioblastoma line DKMG transduced with EGFRvIII). As to the kind of experiment: flow cytometry on DKMG-EGFRvIII cells, antibody at 1 µg/ml.
Test [12] has as its target EGFR and EGFRvIII on GBM39 cells (patient derived xenograft glioblastoma line). As to the kind of experiment: flow cytometry on GBM39 cells, antibody at 2 µg/ml.
The target of test [13] is EGFRvIII on DKMG-EGFRvIII cells (human glioblastoma line DKMG transduced with EGFRvIII). The test can be described thus: flow cytometry on DKMG-EGFRvIII cells, antibody at 10 µg/ml.

For IgG2 Iso Con (antibody), the Median : PE-A amounted to 34.1 in test [1]; 31.2 in test [2]; 47.6 in test [3]; 33.5 in test [4]; 26.9 in test [5].
As for monoclonal antibody ma528, the GeoMean was 2450 in test [6] and 3700 in test [7]. Also, the Median : PE-A worked out at 6860 in test [1]; 10700 in test [2]; 2720 in test [3]; 4040 in test [4]; 4470 in [5]. In addition, the median fluorescent intensity is 30300 in [8]; 12900 in [9]; 12700 in test [10]; 14300 in test [11]; 29800 in test [12]; 13500 in test [13].
On to IgG1 Iso Con (antibody), for which the Median : PE-A was 34.9 in test [1]; 34.3 in [2]; 48 in test [3]; 32.6 in [4]; 26.2 in [5].

These data come from US20260193363A1.
